{
  "source": "paper PMC12090729",
  "data": [
    {"experiment": "qRT-PCR of viral N RNA, transfected HEK293T", "details": "glycan lost; control: WT hACE2", "values": [
      {"substance": "hACE2 (angiotensin-converting enzyme 2): N690A", "other: susceptibility to genuine virus infection": "no change", "other: susceptibility to genuine virus infection, fold_change": "no change"},
      {"substance": "hACE2 (angiotensin-converting enzyme 2): N322A", "other: susceptibility to genuine virus infection": "decreases"}
    ]},
    {"experiment": "VSVpp infection, BFP+ cells, HEK293T without TMPRSS2", "details": "glycan lost; control: WT hACE2", "values": [
      {"substance": "hACE2 (angiotensin-converting enzyme 2): N690A", "other: viral entry receptor function": "increases"},
      {"substance": "hACE2 (angiotensin-converting enzyme 2): N322A", "other: viral entry receptor function": "increases"}
    ]},
    {"experiment": "anti-ACE2 western blot, HEK293T lysates", "details": "glycan lost; control: WT hACE2", "values": [
      {"substance": "hACE2 (angiotensin-converting enzyme 2): N432A", "expression_or_secretion": "no change"},
      {"substance": "hACE2 (angiotensin-converting enzyme 2): N103A", "expression_or_secretion": "no change"},
      {"substance": "hACE2 (angiotensin-converting enzyme 2): N90A", "expression_or_secretion": "no change"},
      {"substance": "hACE2 (angiotensin-converting enzyme 2): T92I", "expression_or_secretion": "no change"},
      {"substance": "hACE2 (angiotensin-converting enzyme 2): N53A", "expression_or_secretion": "no change"},
      {"substance": "hACE2 (angiotensin-converting enzyme 2): N690A", "expression_or_secretion": "no change"},
      {"substance": "hACE2 (angiotensin-converting enzyme 2): N546A", "expression_or_secretion": "no change"},
      {"substance": "hACE2 (angiotensin-converting enzyme 2): N322A", "expression_or_secretion": "no change"}
    ]},
    {"experiment": "not given", "details": "glycan lost", "values": [
      {"substance": "hACE2 (angiotensin-converting enzyme 2): N432A", "other: viral entry receptor function, fold_change": "no change"},
      {"substance": "hACE2 (angiotensin-converting enzyme 2): N103A", "other: viral entry receptor function, fold_change": "no change"},
      {"substance": "hACE2 (angiotensin-converting enzyme 2): N90A", "other: susceptibility to genuine virus infection": "no change", "other: susceptibility to genuine virus infection, fold_change": "increases", "other: viral entry receptor function, fold_change": "no change"},
      {"substance": "hACE2 (angiotensin-converting enzyme 2): N53A", "other: cell-cell fusion": "decreases", "other: viral entry receptor function, fold_change": "no change"},
      {"substance": "hACE2 (angiotensin-converting enzyme 2): N690A", "other: viral entry receptor function, fold_change": "increases"},
      {"substance": "hACE2 (angiotensin-converting enzyme 2): N546A", "other: viral entry receptor function, fold_change": "no change"},
      {"substance": "hACE2 (angiotensin-converting enzyme 2): N322A", "other: Camostat sensitivity of S-mediated entry": "decreases", "other: susceptibility to genuine virus infection": "increases", "other: viral entry receptor function, fold_change": "increases"}
    ]},
    {"experiment": "not given", "details": "glycan lost; control: WT hACE2", "values": [
      {"substance": "hACE2 (angiotensin-converting enzyme 2): N322A", "other: viral entry receptor function": "no change"}
    ]},
    {"experiment": "syncytia formation, GFP+ area, co-transfected HEK293T", "details": "glycan lost; control: WT hACE2", "values": [
      {"substance": "hACE2 (angiotensin-converting enzyme 2): N53A", "other: cell-cell fusion": "no change"}
    ]},
    {"experiment": "confocal immunofluorescence, HeLa cells", "details": "glycan lost; control: WT hACE2", "values": [
      {"substance": "hACE2 (angiotensin-converting enzyme 2): N432A", "localisation_or_trafficking": "no change"},
      {"substance": "hACE2 (angiotensin-converting enzyme 2): N103A", "localisation_or_trafficking": "no change"},
      {"substance": "hACE2 (angiotensin-converting enzyme 2): N90A", "localisation_or_trafficking": "no change"},
      {"substance": "hACE2 (angiotensin-converting enzyme 2): T92I", "localisation_or_trafficking": "no change"},
      {"substance": "hACE2 (angiotensin-converting enzyme 2): N53A", "localisation_or_trafficking": "no change"},
      {"substance": "hACE2 (angiotensin-converting enzyme 2): N690A", "localisation_or_trafficking": "no change"},
      {"substance": "hACE2 (angiotensin-converting enzyme 2): N546A", "localisation_or_trafficking": "no change"},
      {"substance": "hACE2 (angiotensin-converting enzyme 2): N322A", "localisation_or_trafficking": "no change"}
    ]},
    {"experiment": "flow cytometry, surface/total MFI ratio, HeLa", "details": "glycan lost; control: WT hACE2", "values": [
      {"substance": "hACE2 (angiotensin-converting enzyme 2): N432A", "localisation_or_trafficking": "no change"},
      {"substance": "hACE2 (angiotensin-converting enzyme 2): N103A", "localisation_or_trafficking": "no change"},
      {"substance": "hACE2 (angiotensin-converting enzyme 2): N90A", "localisation_or_trafficking": "no change"},
      {"substance": "hACE2 (angiotensin-converting enzyme 2): T92I", "localisation_or_trafficking": "no change"},
      {"substance": "hACE2 (angiotensin-converting enzyme 2): N53A", "localisation_or_trafficking": "no change"},
      {"substance": "hACE2 (angiotensin-converting enzyme 2): N690A", "localisation_or_trafficking": "no change"},
      {"substance": "hACE2 (angiotensin-converting enzyme 2): N546A", "localisation_or_trafficking": "no change"},
      {"substance": "hACE2 (angiotensin-converting enzyme 2): N322A", "localisation_or_trafficking": "no change"}
    ]}
  ]
}
